{
  "source": "patent US20030166537A1",
  "about": "“Use of GDNF for treating corneal defects” (Biopharm Gesellschaft Zur Biotechnologischen Entwicklung …, priority 1999, published 2003)",
  "molecules": {"B1": {"name": "artemin: GDNF family member, also referred to as enovin or neublastin (SEQ ID NO 5) (protein)", "chain": "CRLRSQLVPVRALGLGHRSDELVRFRFCSGSCRRARSPHDLSLASLLGAGALRPPPGSRPVSQPCCRPTRYEAVSFMDVNSTWRTVDRLSATACGC", "modifications": "artemin"}},
  "format_in_all_cases": "cell-based",
  "key": {"[1]": {"tested_on": "primary rabbit corneal epithelial cells", "assay": "single cell clonal growth assay (colony formation, clonal proliferation)", "details": "250 ng/ml", "text": "In order to evaluate the effect of GDNF on corneal proliferation, recombinant human GDNF was used (R&D, Minneapolis, Minn., USA). For the evaluation of the effect on corneal epithelial proliferaton a single cell clonal growth model was utilized which allows to determine the effect of the given growth factor on both colony formation as well as clonal expansion (Kruse et al., 1991). New Zealand white rabbits were housed and treated according to the ARVO Resolution of Animals in Research and under observation of German Federal Laws and the laws of the State of Baden-Württemberg. Prior to sacrifice with an intravenous overdose of pentobarbital, they received an intramuscular injection of xylazine hydrochloride and ketamine hydrochloride. The details of the clonal growth assay are described in Kruse et al. (1991). 5000 viable cells were seeded in each 16 mm dish in serum-free medium MCDB 151 with a supplement (S) of insulin (5 μg/ml), transferrin (5 μg/ml), selenium (5 ng/ml) and hydrocortisone (5 μg/ml) (all from Sigma, Deisenhofen, Germany). […] This quantification was facilitated by the use of dishes which contained a grit on the bottom which is roughly 2 mm wide (from Sarstedt, Newton, N.C., USA). For data collection the entire surface area of four randomly selected dishes for each condition was screened. Furthermore, the number of cells per colony was determined in 75 randomly selected colonies for each condition. Furthermore, the total number of cells/dish was calculated in order to carry out an evaluation for artemin. In order to stimulate the cellular proliferation, GDNF (50 or 200 ng/ml) or artemin (250 ng/ml) was added to the medium. In order to estimate the rate of proliferation after 12 days (a time when neighbouring colonies started to grow into each other and, therefore, prevented numerical quantification) dishes were fixed in −20° C. methanol and stained with methylene blue.\nAll experiments examining the effect of GDNF on corneal proliferation were performed in triplicate with cells from different donors. The influence of growth factor on colony formation, colony size and cell number was studied using one-way analysis of variance. […] Student's t-test was employed to determine which differences were significant after analysis of variance."}, "[2]": {"tested_on": "primary rabbit corneal epithelial cells", "assay": "in vitro wound healing assay (scratch wound), artemin", "details": "100 ng/ml; within 6 h; control about 20%", "experimental": "For in vitro wound healing assays primary corneal epithelial cells and cells from the corneal epithelial cell line were seeded at a density of 5×10^5 onto 60 mm plastic dishes with 2 mm grid (Sarstedt, Numbrecht, Germany) and cultured for 2 days until subconfluency. For experiments with artemin primary cultured rabbit corneal epithelial cells were used. These cells had been isolated with Dispase (1,2 U/ml) and trypsin/EDTA. Rabbit cells had been cultured in medium 500 with additives (Cascade Biologies).\nThe cell layer was injured under the microscope by inducing several parallel scratches with a soft plastic cell scrubber (Falcon, Becton and Dickinson, Heidelberg, Germany). The tip of the scrubber was cut and measured about 1 mm and consequently the width of the scratch in the cell layer was also about 1 mm. Selected areas in the dishes were marked with a very fine marker pen and consecutive images were taken at different time points at 5×magnification under an inverted phase contrast microscope (Axiovert 25, Zeiss, Jena, Germany) equipped with a video camera. […] For each condition four representative areas were evaluated within three dishes. […] 18 hours later the mean diameter of the same scratch was calculated again and expressed in percent of the diameter at the beginning of the experiment."}, "[3]": {"tested_on": "FAK, Pyk2, cRaf, MEK1, Erk 1 and 2, Elk, RSK", "assay": "western blot of phosphorylated intracellular signaling proteins in corneal epithelial cells", "details": "250 ng/ml artemin for 10, 20, 40 and 60 minutes; human corneal epithelial cells"}},
  "data": [
    {"molecule": "B1", "values": [
      {"measurement": "total number of cells per dish", "setting": "[1]; control 200±98 cells, p<0.001", "result": "significantly increased"},
      {"measurement": "total number of colonies", "setting": "[1]; day 6, control 40±20", "result": "79±38"},
      {"measurement": "gap in the cell monolayer filled", "setting": "[2]", "result": "29±8", "unit": "%"},
      {"measurement": "phosphorylated Erk 1 and 2", "setting": "[3]", "result": "gradually increased"},
      {"measurement": "phosphorylated MEK", "setting": "[3]", "result": "increasing amount"}
    ]}
  ]
}
